Test [1] concerns the target T1, Human Siglec 5, Fc chimera (R&D Systems) (human, UniProt O15389 17-434, limits assumed).
T1 construct: Bought or recombinant Fc fusion; also called recombinant Siglec-5-Fc; not shown: Fc part
T1 sequence: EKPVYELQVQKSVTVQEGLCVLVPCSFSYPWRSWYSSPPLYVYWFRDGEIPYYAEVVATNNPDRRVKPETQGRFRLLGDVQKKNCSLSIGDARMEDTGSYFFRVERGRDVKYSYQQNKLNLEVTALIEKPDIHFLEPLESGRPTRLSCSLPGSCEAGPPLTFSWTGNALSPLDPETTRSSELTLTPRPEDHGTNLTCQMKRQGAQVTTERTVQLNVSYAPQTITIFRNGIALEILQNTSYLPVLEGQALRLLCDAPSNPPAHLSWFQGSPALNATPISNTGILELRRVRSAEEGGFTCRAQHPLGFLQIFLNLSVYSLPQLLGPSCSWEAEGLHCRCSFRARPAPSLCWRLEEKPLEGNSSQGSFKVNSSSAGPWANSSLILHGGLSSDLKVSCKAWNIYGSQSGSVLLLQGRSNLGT
The test is described as follows: RBC adhesion to plate-bound Siglec-5-Fc, 1.0 ug/ml isotype control, percent of binding without antibody.

The target of test [2] is human Siglec-5 expressed on human primary cells (human) (UniProt O15389). The test is described as follows: flow cytometry, human primary neutrophils, 10 ug/ml mAb. A general note: Flow cytometry measures light scatter and fluorescence of single cells or particles in a stream.
The target is the same in test [3]. Briefly: flow cytometry, human primary macrophages, 10 ug/ml mAb.
Test [4] has the same target. Briefly: flow cytometry, human primary monocytes, 10 ug/ml mAb.
Test [5] has the same target. The test is described as follows: flow cytometry, human primary dendritic cells, 10 ug/ml mAb.
Test [6] addresses T1, Human Siglec 5, Fc chimera (R&D Systems). The test is described as follows: RBC adhesion to plate-bound Siglec-5-Fc, 0.3 ug/ml mAb, percent of binding without antibody.
The target of test [7] is human Siglec-5 expressed on human primary cells (human) (UniProt O15389). Briefly: flow cytometry, human primary monocytes, secondary antibody only (no primary antibody), background control.
Test [8] shares this target. The test is described as follows: flow cytometry, human primary macrophages, secondary antibody only (no primary antibody), background control.
Test [9] has the same target. The test is described as follows: flow cytometry, human primary neutrophils, secondary antibody only (no primary antibody), background control.
For test [10] the target is unchanged. Briefly: flow cytometry, human primary dendritic cells, secondary antibody only (no primary antibody), background control.
Test [11] shares this target. The test is described as follows: flow cytometry, human primary monocytes, isotype control.
The target is the same in test [12]. Briefly: flow cytometry, human primary neutrophils, isotype control.
Test [13] concerns the target T1, Human Siglec 5, Fc chimera (R&D Systems). The test is described as follows: RBC adhesion to plate-bound Siglec-5-Fc, 0.3 ug/ml isotype control, percent of binding without antibody.
The target of test [14] is human Siglec-5 expressed on human primary cells (human) (UniProt O15389). Briefly: flow cytometry, human primary macrophages, isotype control.
For test [15] the target is unchanged. Briefly: flow cytometry, human primary dendritic cells, isotype control.
Test [16] deals with T2, human Siglec-5 expressed on human primary cells (human, UniProt O15389 17-551).
T2 construct: Endogenous receptor on human primary monocytes, dendritic cells, macrophages and neutrophils; also called CD170
T2 sequence: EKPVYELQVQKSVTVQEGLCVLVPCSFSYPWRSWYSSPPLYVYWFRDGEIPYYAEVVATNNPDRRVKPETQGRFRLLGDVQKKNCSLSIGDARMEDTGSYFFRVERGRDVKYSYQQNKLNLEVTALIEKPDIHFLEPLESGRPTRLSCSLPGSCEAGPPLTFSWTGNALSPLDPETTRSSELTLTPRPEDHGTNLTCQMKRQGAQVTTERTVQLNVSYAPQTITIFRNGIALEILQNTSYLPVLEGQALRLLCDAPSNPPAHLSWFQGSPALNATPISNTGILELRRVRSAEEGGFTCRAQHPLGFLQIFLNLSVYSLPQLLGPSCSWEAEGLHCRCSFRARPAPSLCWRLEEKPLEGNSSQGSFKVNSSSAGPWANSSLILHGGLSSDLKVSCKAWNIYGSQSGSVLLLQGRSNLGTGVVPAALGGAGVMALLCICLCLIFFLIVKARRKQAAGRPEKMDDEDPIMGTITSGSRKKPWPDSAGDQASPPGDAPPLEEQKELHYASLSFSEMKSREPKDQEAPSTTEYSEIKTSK
The test is described as follows: flow cytometry, human primary neutrophils, 10 ug/ml mAb.
Description: (§1) Initial characterization of Siglec-5 antibodies involved determining their ability to bind Siglec-5 expressed on human primary monocytes, human primary macrophages, human primary dendritic cells, and human primary neutrophils. Cells were harvested, plated at 10⁶1m1 in a 96 well plate, and incubated in 100 μl PBS containing 2% FBS, 2 mM EDTA and 10 μg/ml Mab and Fc blocking reagent for 1 hour in ice. […] Cells were washed twice in cold PBS and analyze by flow cytometry on a BD FACS Canto. Data analysis and calculation of MFI values was performed with FlowJo (TreeStar) software version 10.0.7.
(§2) Binding is compared to an isotype control.

For test [17], the target named is T2, human Siglec-5 expressed on human …. The test is described as follows: flow cytometry, human primary macrophages, 10 ug/ml mAb.
Description: as §1, §2
For test [18], the target named is T1, Human Siglec 5, Fc chimera (R&D Systems). Briefly: RBC adhesion to plate-bound Siglec-5-Fc, 1.0 ug/ml mAb, percent of binding without antibody.
Description: Siglec-5 antibodies (0.3 μg/ml or 1.0 μg/ml) were bound for one hour at RT with gentle rocking. After removal of unbound antibody, red blood cells were added to each well at a concentration of 3.0 ×10⁶ cells per ml and incubated at RT for one hour. Unbound RBCs were then carefully washed off 3X with PBS, and water was added to each well for hypotonic lysis of bound RBCs. The plate was transferred to -80° C. for 10 minutes, followed by 37° C. for 15 minutes. Bound RBCs were detected by peroxidase activity, followed by 2N sulfuric acid to stop the reaction.
The target in test [19] is T2, human Siglec-5 expressed on human …. The test is described as follows: flow cytometry, human primary monocytes, 10 ug/ml mAb.
Description: as §1, §2
The target of test [20] is T3, Histidine-tagged human Siglec-5 (NovoProtein) (human, UniProt O15389 17-434, limits assumed).
T3 construct: Bought protein; also called Siglec-5-his tagged protein; not shown: histidine tag
T3 sequence: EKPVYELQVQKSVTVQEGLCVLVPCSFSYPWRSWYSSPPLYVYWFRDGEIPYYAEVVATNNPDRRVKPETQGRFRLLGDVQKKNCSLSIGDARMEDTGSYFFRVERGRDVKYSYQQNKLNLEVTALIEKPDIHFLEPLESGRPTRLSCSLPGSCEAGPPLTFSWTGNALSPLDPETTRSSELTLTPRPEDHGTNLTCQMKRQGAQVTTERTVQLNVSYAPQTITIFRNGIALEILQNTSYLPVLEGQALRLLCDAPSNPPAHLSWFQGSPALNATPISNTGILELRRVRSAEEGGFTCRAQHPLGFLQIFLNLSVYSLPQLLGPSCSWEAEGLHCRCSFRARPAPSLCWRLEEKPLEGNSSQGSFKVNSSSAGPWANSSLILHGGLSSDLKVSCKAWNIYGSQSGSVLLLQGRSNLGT
The test is described as follows: SPR (BiaCore T200, 25 C), mAb captured on anti-mouse IgG, 15 nM His-tagged Siglec-5, single-concentration 1:1 fit.

The target in test [21] is T2, human Siglec-5 expressed on human …. The test is described as follows: flow cytometry, human primary dendritic cells, 10 ug/ml mAb.
Description: as §1, §2

The text below walks through data of patent US20210017275A1 (Alector, published 2021).

On to mouse IgG2b isotype control antibody, for which, in [1], the Percent RBC Binding to Siglec-5 turned out to be 94.4%.
Take “commercially available anti-Siglec-5 antibody, clone 194128 (R&D Systems)”: the % Positive was 99.2% in test [2], 96.9% in [3], 98.8% in [4] and 94.8% in test [5]. For the same molecule, the MFI in test [2] came out at 383; in test [3], 806; in test [4] it was 463; in test [5], 641. In test [6], this molecule displayed a Percent RBC Binding to Siglec-5 of 41.5%.
Regarding mouse IgG2a isotype control antibody, in test [1], the Percent RBC Binding to Siglec-5 is 94.5%.
In the case of PE-conjugated secondary antibody, the % Positive in [7] amounted to 8.2%; in test [8] it was 5.4%; in [9], 3.42%; in [10] it was 2.1%. Also, the MFI in test [7] was 104; in [8], 221; in test [9], 62.1; in test [10] it was 87.
With mouse IgG1 isotype control antibody, the % Positive in test [11] was determined as 10.7%; in [12] it was 1.3%; in test [14], 21.9%; in test [15], 6.7%. Besides, the MFI was determined as 126 in test [11], 53.7 in test [12], 305 in test [14] and 98 in test [15]. The Percent RBC Binding to Siglec-5 in [13] was 100%; in [1], 102%.

B1: anti-Siglec-5 monoclonal antibody 8C3 (antibody, IgG1, V domains shown)
VH: QVQLQQSGGGLVKPGTSVKLSCKASGYIFTEYIIHWVKQRSGQGLEWIGWFYPGIISIKYNEKFKDKATLTADKSSSTVYMELSRLTSEDSAVYFCAGHEGYDGAMDYWGQGTSVTVSS
VL: DVLMTQTPLSLPVSLGDQASISCRCSQSIVHSNGNTYLEWYLQKPGQSPKLLIYRVSNRFSGVPDRFSGSGSGTDFTLKISRVEAEDLGVYYCFQGSHVPWTFGGGTKLEIK
With B1, the “% Positive” value came to 96% in test [16], 92% in test [17], 94.8% in [19] and 94.9% in [21]. Besides, the MFI is 320 in test [16], 490 in test [17], 377 in [19] and 512 in [21]. In addition, the “Percent RBC Binding to Siglec-5” value in [18] was 5.36%; in [6], 24.2%. For the same molecule, the equilibrium dissociation constant (Kd) – broadly, the free concentration of one partner at which half of the binding sites on the other are occupied at equilibrium, for simple one-to-one binding – in test [20] is 0.043 nM.

B2: anti-Siglec-5 monoclonal antibody 9A5 (antibody, IgG1, V domains shown)
VH: QVQLQQSGPELVEPGASVKVSCKASGYAFTSYNMYWVKQSHGKSLEWIGYIDPYNGGTYYDQKFKGRATLTVDKSSSTAHMHLNSLTSEDSAVYYCVFFYEYDGFPYWGQGTLVTVSA
VL: DIVLTQSPTLMSASPGEKVTMTCSASSSVSYMYWYQQKPRSSPKPLIYLTSNLASGVPARFSGSGSGTSYSLTISSMEAEDAATYYCQQWSSNPLTFGAGTKLELK
As for B2, the “% Positive” value in test [16] stood at 98.6%; in test [17], 87.8%; in test [19], 93.2%; in [21] it was 93.9%. Besides, the MFI in [16] is 332; in test [17] it was 471; in test [19], 368; in test [21], 591. Also, the “Percent RBC Binding to Siglec-5” value in test [18] came out at 5.59%; in [6], 47.5%. This molecule had an equilibrium dissociation constant (Kd) in [20] of 0.408 nM.
